Laboratory results reported in publication PMC7041945, “Misfolded proteins bind and activate death receptor 5 to trigger apoptosis during unresolved endoplasmic reticulum stress” (eLife, 2020).

Tested on: CHOP, BiP, and DR5 mRNA in HCT116 cells
Assay: qPCR of UPR target transcripts (CHOP, BiP, DR5)
Format: cell-based, Homo sapiens
Details: HCT116, transfected 24 hr
Procedure: Cells were grown in 6-well plates and harvested with 0.5 ml of TRIzol reagent (Life Technologies) per manufacturer’s protocol to extract RNA. For cDNA synthesis, 500 ng of total RNA was reverse transcribed with 2 μl of the SuperScript VILO master mix (Life Technologies # 11755050) in a total reaction volume of 10 μl following the manufacturer’s protocol for reaction temperature and duration. The reverse transcription product was diluted to 200 μl with 10 mM Tris-HCl pH 8.2 and used at 1:100 dilution for subsequent RT-PCR reactions.
PCR samples were prepared as described by manufacturer’s protocols from iQ SYBR Green Supermix (BioRad #17088800).
For each experiment, qRT-PCR reactions were set up in triplicate and run using a CFX96 Real Time System (Bio-Rad). Quantitation cycles were determined with CFX Manager 3.0 software (Bio-Rad) and then normalized to GAPDH as an internal control.

B1: MPZ-GFP: myelin protein zero with a C-terminal monomeric EGFP, expressed from plasmid (protein)
chain: IVVYTDREVHGAVGSRVTLHCSFWSSEWVSDDISFTWRYQPEGGRDAISIFHYAKGQPYIDEVGTFKERIQWVGDPRWKDGSIVIHNLDYSDNGTFTCDVKNPPDIVGKTSQVTLYVFEKVPTRYGVVLGAVIGGVLGVVLLLLLLFYVVRYCWLRRQAALQRRLSAMEKGKLHKPGKDASKRGRQTPVLYAMLDHSRSTKAVSEKKAKGLGESRKDKK
modifications: left off: monomeric EGFP, C-terminal, kept
notes: myelin protein zero with a C-terminal monomeric EGFP, expressed from plasmid
UPR target gene transcription: dose-dependent upregulation of the UPR transcriptional target genes CHOP, BiP, and DR5
